Measured values published in patent US20090155250A1 (US Dept. of Health and Human Services, published 2009).

Tests used:
BSA [1] = biological target: T1, BSA (UniProt P02769 25-607); experiment: ELISA, wells coated with the unrelated protein, IgG titrated
T1 construct: Unrelated control protein

BSA [2] = biological target: T1, BSA; experiment: ELISA, protein coated on wells

T1 sequence (P02769 25-607 limits assumed): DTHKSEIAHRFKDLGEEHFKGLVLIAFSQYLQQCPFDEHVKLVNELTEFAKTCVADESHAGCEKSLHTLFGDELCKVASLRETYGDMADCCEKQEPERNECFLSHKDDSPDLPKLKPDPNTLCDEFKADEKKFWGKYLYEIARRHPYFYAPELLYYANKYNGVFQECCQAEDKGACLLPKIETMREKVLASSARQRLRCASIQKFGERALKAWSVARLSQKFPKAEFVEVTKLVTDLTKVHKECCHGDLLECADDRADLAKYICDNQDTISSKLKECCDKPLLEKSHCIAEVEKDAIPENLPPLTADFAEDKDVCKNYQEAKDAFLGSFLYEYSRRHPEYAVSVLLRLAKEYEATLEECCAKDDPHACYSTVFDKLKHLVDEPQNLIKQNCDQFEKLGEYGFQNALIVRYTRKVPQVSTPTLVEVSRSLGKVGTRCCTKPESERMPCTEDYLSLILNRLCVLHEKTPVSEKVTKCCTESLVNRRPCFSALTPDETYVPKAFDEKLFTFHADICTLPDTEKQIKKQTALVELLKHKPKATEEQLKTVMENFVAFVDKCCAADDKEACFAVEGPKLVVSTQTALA

Binder	binding result (BSA [1])	binding result (BSA [2])
chimpanzee/human anti-B5 MAb 8AH8AL (antibody, V domains shown, also called anti-B5 8AH8AL; Anti-B5 8AH8AL) VH: EVQLLESGGGLIKPGGSLRLSCAASGFIFRDYNINWVRQAPGKGLEWLGFIRTRASGRSTEYSASVKGRFTISRDDSKNIAYLHINSLKMEDTAVYYCAKKGDSYYYMDFWGKGTAVTVS VL: ELALTQPASVSGSPGQSITISCTGGRSDLGDSNFVSWYQQYPGKAPKLLIYQVNKRPSGVPDRFSASKSANTASLTISGLQTEDEADYFCSSYTTTSTYVFGIGTKVVVLG	no binding (tested: 10^4 ng/ml)	–
chimpanzee/human anti-B5 MAb 8AH7AL (antibody, V domains shown, also called anti-B5 8AH7AL) VH: EVQLLESGGGLIKPGGSLRLSCAASGFIFRDYNINWVRQAPGKGLEWLGFIRTRASGRSTEYSASVKGRFTISRDDSKNIAYLHINSLKMEDTAVYYCAKKGDSYYYMDFWGKGTAVTVS VL: ELALTQPPSVSGSPGQSITISCTGTSSDVGGHNGVSWYQQYPGKAPKVMIYEVNKRPSGVSNRLSGSKSGNTASLTISGLQAEDEGDYYCSSYRNGGSVVFGGGTKLTVLG	–	no binding
